Targets include SmBiT-SEC24A (UniProt O95486); SmBiT-SEC24C (UniProt P53992); LgBiT-SURF4 (UniProt O15260).
Test in all cases: NanoBiT
Common to all, as to details: six technical replicates in each of three independent biological replicates; parent: est. 1.0; read off a plot

Chain of UniProt P53992 (P53992 whole entry): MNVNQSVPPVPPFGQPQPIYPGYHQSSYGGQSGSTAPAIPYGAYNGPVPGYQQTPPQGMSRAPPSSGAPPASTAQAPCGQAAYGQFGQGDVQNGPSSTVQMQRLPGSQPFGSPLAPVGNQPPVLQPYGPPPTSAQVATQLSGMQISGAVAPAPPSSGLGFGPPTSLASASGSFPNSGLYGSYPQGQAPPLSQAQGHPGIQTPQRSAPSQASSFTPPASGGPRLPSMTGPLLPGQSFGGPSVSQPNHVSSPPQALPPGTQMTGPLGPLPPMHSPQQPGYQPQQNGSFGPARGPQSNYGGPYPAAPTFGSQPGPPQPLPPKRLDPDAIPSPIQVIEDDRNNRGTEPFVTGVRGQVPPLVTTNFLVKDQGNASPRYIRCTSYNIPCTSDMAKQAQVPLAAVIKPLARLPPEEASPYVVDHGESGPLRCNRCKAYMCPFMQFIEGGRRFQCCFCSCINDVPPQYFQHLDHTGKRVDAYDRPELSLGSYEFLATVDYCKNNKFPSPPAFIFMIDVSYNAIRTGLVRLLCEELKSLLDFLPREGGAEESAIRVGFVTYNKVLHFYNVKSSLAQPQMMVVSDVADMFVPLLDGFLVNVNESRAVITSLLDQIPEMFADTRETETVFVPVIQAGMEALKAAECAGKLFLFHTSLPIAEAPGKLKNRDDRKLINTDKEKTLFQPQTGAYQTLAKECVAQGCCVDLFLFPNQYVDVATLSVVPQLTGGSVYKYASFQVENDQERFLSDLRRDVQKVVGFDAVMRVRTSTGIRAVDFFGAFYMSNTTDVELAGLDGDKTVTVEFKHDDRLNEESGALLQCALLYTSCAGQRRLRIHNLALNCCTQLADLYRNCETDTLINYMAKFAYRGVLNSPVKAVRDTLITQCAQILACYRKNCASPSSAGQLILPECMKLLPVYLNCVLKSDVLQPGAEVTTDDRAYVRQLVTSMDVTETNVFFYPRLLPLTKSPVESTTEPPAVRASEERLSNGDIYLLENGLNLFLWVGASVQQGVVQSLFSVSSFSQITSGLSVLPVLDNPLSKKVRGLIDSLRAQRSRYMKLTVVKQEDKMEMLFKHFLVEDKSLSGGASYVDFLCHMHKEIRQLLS
Chain of LgBiT-SURF4 (O15260 whole entry, change not shown): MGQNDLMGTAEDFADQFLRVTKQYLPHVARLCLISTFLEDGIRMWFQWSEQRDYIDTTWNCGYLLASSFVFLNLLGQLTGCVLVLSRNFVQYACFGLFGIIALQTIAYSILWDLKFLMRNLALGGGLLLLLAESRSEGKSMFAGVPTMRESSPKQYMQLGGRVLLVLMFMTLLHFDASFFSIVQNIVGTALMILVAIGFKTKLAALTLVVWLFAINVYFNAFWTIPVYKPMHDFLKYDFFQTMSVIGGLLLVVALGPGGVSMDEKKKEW
Chain of SmBiT-SEC24A (O95486 whole entry, change not shown): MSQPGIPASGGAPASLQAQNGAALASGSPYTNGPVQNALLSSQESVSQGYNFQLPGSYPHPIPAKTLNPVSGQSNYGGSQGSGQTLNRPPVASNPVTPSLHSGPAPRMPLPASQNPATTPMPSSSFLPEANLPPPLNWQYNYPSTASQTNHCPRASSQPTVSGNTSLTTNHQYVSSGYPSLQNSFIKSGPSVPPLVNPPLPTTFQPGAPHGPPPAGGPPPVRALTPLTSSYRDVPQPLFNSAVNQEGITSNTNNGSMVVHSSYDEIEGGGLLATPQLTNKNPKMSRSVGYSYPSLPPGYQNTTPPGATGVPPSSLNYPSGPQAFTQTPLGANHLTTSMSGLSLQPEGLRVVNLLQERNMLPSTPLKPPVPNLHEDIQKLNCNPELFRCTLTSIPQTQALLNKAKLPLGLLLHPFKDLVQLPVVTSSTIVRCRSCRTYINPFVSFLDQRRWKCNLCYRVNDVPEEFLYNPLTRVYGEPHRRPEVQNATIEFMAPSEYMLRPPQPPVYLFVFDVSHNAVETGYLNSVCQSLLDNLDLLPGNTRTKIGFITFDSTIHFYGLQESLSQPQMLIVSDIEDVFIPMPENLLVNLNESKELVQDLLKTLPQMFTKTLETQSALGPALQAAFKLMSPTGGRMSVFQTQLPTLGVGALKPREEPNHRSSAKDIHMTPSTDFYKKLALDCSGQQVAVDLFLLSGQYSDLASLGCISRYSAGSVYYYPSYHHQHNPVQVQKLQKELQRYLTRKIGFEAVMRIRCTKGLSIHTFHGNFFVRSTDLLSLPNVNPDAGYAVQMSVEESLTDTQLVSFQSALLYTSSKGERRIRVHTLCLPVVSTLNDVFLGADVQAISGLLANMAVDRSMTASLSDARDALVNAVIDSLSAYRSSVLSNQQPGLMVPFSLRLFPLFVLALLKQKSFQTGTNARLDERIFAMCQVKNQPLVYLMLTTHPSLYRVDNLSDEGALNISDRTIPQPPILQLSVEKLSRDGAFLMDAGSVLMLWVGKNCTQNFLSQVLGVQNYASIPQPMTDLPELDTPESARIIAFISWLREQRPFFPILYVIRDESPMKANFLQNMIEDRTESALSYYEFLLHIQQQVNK

Regarding LgBiT-SURF4 (from UniProt O15260) EW, the results for the ratio to parent in the experiment with SmBiT-SEC24A and in the experiment with SmBiT-SEC24C were 0.85 and 0.78, respectively.

For the substance “LgBiT-SURF4 (from UniProt O15260) Phe loop”, the ratio to parent was found to be 0.43 in the experiment with SmBiT-SEC24A and 0.82 with SmBiT-SEC24C.

As for “SmBiT-SEC24A (from UniProt O95486) D-site”, the ratio to parent with LgBiT-SURF4 is 0.79.

As for LgBiT-SURF4 (from UniProt O15260) DE, the ratio to parent is 0.9 in the experiment with SmBiT-SEC24A and 0.69 with SmBiT-SEC24C.

For the origin of these results see PMC11557686.
